{"source": "paper PMC5428420", "about": "“The trimer interface in the quaternary structure of the bifunctional prokaryotic FAD synthetase from Corynebacterium ammoniagenes” (Scientific Reports, 2017)", "biological_target": "the molecule itself", "test": "SEC; oligomeric fractions, 15-20 µM protein, incubated 10 min at room temperature in buffer only (20 mM PIPES, 0.8 mM MgCl2, pH 7.0), then passed again through Superdex 200 10/300 GL"}
{"protein": "FAD synthetase from Corynebacterium ammoniagenes, wild type (enzyme, Bifunctional FAD synthetase (N-terminal FMNAT module, C-terminal RFK module) from Corynebacterium ammoniagenes, CaFADS; Plasmid pET28a-CaFADS; The size of the oligomers was not resolved by gel filtration; also called CaFADS; WT CaFADS; source: E. coli BL21(DE3), purified (20% ammonium sulfate fractionation, phenyl-sepharose, DEAE-cellulose)) MDIWYGTAAVPKDLDNSAVTIGVFDGVHRGHQKLINATVEKAREVGAKAIMVTFDPHPVSVFLPRRAPLGITTLAERFALAESFGIDGVLVIDFTRELSGTSPEKYVEFLLEDTLHASHVVVGANFTFGENAAGTADSLRQICQSRLTVDVIDLLDDEGVRISSTTVREFLSEGDVARANWALGRHFYVTGPVVRGAGRGGKELGFPTANQYFHDTVALPADGVYAGWLTILPTEAPVSGNMEPEVAYAAAISVGTNPTFGDEQRSVESFVLDRDADLYGHDVKVEFVDHVRAMEKFDSVEQLLEVMAKDVQKTRTLLAQDVQAHKMAPETYFLQAES", "values": [{"measurement": "monomer/oligomer ratio", "result": "~0.8"}]}
